The target of test [1] is T1, biotinylated di-methylated H4K20 peptide (H4 amino acids 1-23) (UniProt P62805 2-24, dimethyl-lysine at K20; biotinylated).
T1 construct: range 1-23; also called H4K20me2
The test can be described thus: peptide pull-down, Western blot. Background: In western blotting, separated proteins are transferred to a membrane and probed.

Test [2] deals with T2, biotinylated mono-methylated H4K20 peptide (H4 amino acids 1-23) (UniProt P62805 2-24, monomethyl-lysine at K20; biotinylated).
T2 construct: range 1-23; also called H4K20me1
The test can be described thus: peptide pull-down, Western blot.

The target in test [3] is T3, RelA mono-methylated at lysine 310 by SETD6 (293T cells) (UniProt Q04206 1-551, monomethyl-lysine at K310).
T3 construct: also called RelAK310me1; methylated RelA
The test can be described thus: GSH-Sepharose pull-down from 293T nuclear extract, Western blot.

The target of test [4] is T4, 3× Flag-SIRT1 methylated by G9a at lysine 622 (293T cells) (UniProt Q96EB6 1-747, methyl-lysine at K622 (state not stated)).
T4 construct: also called methylated SIRT1; not shown: 3× Flag tag of p3×FLAG-CMV-7
T4 sequence (looked up): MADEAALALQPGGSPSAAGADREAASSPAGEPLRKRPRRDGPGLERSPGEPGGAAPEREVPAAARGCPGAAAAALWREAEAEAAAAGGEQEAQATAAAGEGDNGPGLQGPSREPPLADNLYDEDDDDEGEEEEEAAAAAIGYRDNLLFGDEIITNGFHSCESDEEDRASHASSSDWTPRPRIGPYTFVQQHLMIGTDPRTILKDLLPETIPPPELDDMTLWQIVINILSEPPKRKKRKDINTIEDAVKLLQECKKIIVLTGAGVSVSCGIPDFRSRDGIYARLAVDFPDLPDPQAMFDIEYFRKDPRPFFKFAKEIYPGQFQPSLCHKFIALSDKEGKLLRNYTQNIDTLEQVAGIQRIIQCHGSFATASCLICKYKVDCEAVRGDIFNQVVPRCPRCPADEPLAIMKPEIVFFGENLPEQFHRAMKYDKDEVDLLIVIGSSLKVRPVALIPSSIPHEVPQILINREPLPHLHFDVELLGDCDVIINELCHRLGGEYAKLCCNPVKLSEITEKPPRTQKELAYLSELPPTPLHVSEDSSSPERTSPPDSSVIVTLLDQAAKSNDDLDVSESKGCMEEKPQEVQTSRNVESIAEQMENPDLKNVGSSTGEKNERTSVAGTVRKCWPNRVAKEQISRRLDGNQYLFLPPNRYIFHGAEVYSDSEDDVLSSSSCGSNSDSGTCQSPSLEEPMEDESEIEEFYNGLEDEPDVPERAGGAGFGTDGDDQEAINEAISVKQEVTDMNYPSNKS
The test can be described thus: GSH-Sepharose pull-down from 293T nuclear extract, anti-Flag Western blot.

Test [5] addresses H3 from HeLa nuclear extract (UniProt P68431 2-136). Nature of the test: GSH-Sepharose pull-down from HeLa nuclear extract, Western blot.
The target of test [6] is T5, p53 mono-methylated at lysine 382 by SET8 (UniProt P04637 1-393, monomethyl-lysine at K382).
T5 construct: also called p53K382me1; monomethylated p53
Nature of the test: Far Western on in vitro methylation reactions.

For test [7], the target named is recombinant H3 dimethylated at lysine 9 by G9a SET domain (UniProt P68431 2-136). The test can be described thus: Far Western on in vitro methylation reactions.
In test [8] the target is T6, RelA carrying K310R substitution (UniProt Q04206 1-551).
T6 construct: also called RelAK310R
Nature of the test: GSH-Sepharose pull-down from 293T nuclear extract, Western blot.

The target in a further test is T7, 3× Flag-SIRT1K622R (UniProt Q96EB6 1-747).
T7 construct: not shown: 3× Flag tag of p3×FLAG-CMV-7
T7 sequence (looked up): T4 sequence (looked up) with K622R
Nature of the test: GSH-Sepharose pull-down from 293T nuclear extract, anti-Flag Western blot.

Test [9] deals with T8, recombinant p53 carrying K382R substitution (UniProt P04637 1-393).
T8 construct: also called p53K382R
The test can be described thus: Far Western on in vitro methylation reactions.

The target of test [10] is T1, biotinylated di-methylated H4K20 …. The test can be described thus: peptide pull-down, α-Flag Western blot.
Test [11] deals with T2, biotinylated mono-methylated H4K20 …. Nature of the test: peptide pull-down, α-Flag Western blot.
Test [12] has as its target T5, p53 mono-methylated at lysine 382 by …. The test can be described thus: Far Western, α-Flag detection (FIG. 9C).

Numbering of substitutions follows the chain as printed.

B1: GST-tagged 3×MBTD355N (methyllysine-binding mutant) (designed binder)
chain: EEWSSSQPATGEKKECWSWESYLEEQKAITAPVSLFQDSQAVTHNKNGFKLGMKLEGIDPQHPSMYFILTVAEVCGYRLRLHFDGYSECHDFWVNANSPDIHPAGWFEKTGHKLQPPKGYKEEEFSWSQYLRSTRAQAAPKHLFVSQSHSPPPLGFQVGMKLEAVNRMNPSLVCVASVTDVVDSRFLVHFDNWDDTYDYWCDPSSPYIHPVGWCQKQGKPLTPPQDYPDPDNFCWEKYLEETGASAVPTWAFKVRPPHSFLVNMKLEAVDRRNPALIRVASVEDVEDHRIKIHFDGWSHGYDFWIDADHPDIHPAGWCSKTGHPLQPPLGPREPSSASPGG
notes: Negative control; also called GST-3×MBTD355N; point-mutant; not shown: GST tag and PreScission linker of the pGEX6P1 vector at the N end
For the molecule B1, the binding result was “no binding (tested: 1 µg protein and 1 µg peptide)” in [1]; “no binding (tested: 1 µg protein and 1 µg peptide)” in test [2]; “no binding” in test [3]; “no binding” in test [4]; “no binding” in test [5]; “no binding” in test [6]. In addition, the binding result in [7] is “no binding”.

B2: GST-tagged 3×MBT (three MBT repeats of L3MBTL1, amino acids 190-530, expressed as a GST fusion) (designed binder, not shown: a dimerising Fc or GST)
chain: B1 chain with N166D
notes: Used in solution (peptide pull-down, Far Western, peptide array) and coupled to GSH-Sepharose (protein pull-down); also called GST-3×MBT; 3xMBT
Take B2: the binding result (in [8]; in the test with 3× Flag-SIRT1K622R; in test [9]) was “no binding” throughout.

B3: 3×MBTD355N-Flag (C-terminally Flag-tagged 3×MBTD355N) (designed binder, not shown: small tags and cut ends)
chain: B1 chain
With B3, the binding result in test [10] and in test [11] was “no binding” in each case.

B4: 3× Flag-3×MBTD355N (designed binder)
chain: B1 chain
notes: also called N-terminally Flag-tagged 3×MBTD355N; not shown: made by PreScission cleavage of the GST version
On to B4, for which the binding result in test [10], in test [11] and in test [12] was “no binding” throughout.

B5: GST-3× Flag-3×MBTD355N (designed binder, not shown: a dimerising Fc or GST; small tags and cut ends)
chain: B1 chain
Regarding B5, the binding result in test [12] is “no binding”.

These data come from patent US20140274782A1 (Stanford University, published 2014).
